Laboratory results from paper PMC6078952.

Target: Anastellin
Experiment: BLI; Octet RED96, anastellin (100 µg/ml) covalently coupled to AR2G biosensors via amine groups, sensors dipped into LOX-PP solutions for 3 min in HBS-P20; 1:1 model

Kd: 152 nM
koff: 0.000445 s⁻¹
kon: 2930 M⁻¹ s⁻¹
B1: recombinant human propeptide of lysyl oxidase (LOX-PP) (domain or fragment)
chain: APLAAGQQQPPREPPAAPGAWRQQIQWENNGQVFSLLSLGSQYQPQRRRDPGAAVPGAANASAQQPRTPILLIRDNRTAAARTRTAGSSGVTAGRPRPTARHWFQAGYSTSRAREAGASRAENQTAPGEVPALSNLRPPSRVDGMVG
modifications: N-linked oligosaccharides (removed by PNGase F, about 13 kDa; three glycosylated asparagine residues: N81, N97, N144)
